# Measured values as given in the supplement of paper PMC10567573.
# B1: CLCN6 (parent)
# chain: ILRSQLVTLLVRGVCYSESQSSAS
# Variants of: B1
# Assay: protein stability index of a GFP-peptide fusion (GPS, HEK-293T) (PSI 1-6); higher = more stable
# Settings: c terminus: a fixed tail appended
# 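Note: lentivirally expressed fusions sorted by FACS into six bins by GFP to DsRed ratio, PSI derived from sequencing read proportions per bin multiplied by bin number.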
row,Variant,protein stability index
1,ILRKQLVTLLVRGVCYSESQSSAS,2.19
2,ILRVQLVTLLVRGVCYSESQSSAS,2.58
3,ILRYQLVTLLVRGVCYSESQSSAS,2.3
4,ILRHQLVTLLVRGVCYSESQSSAS,3.41
5,ILRLQLVTLLVRGVCYSESQSSAS,2.56
6,ILRTQLVTLLVRGVCYSESQSSAS,2.68
7,ILRNQLVTLLVRGVCYSESQSSAS,2.54
8,ILRWQLVTLLVRGVCYSESQSSAS,3.61
9,ILRDQLVTLLVRGVCYSESQSSAS,2.21
10,ILRIQLVTLLVRGVCYSESQSSAS,3.85
11,ILREQLVTLLVRGVCYSESQSSAS,3.85
12,ILRMQLVTLLVRGVCYSESQSSAS,2.78
13,ILRSQLVHLLVRGVCYSESQSSAS,2.18
14,ILRSQLVPLLVRGVCYSESQSSAS,2.12
15,ILRSQLVRLLVRGVCYSESQSSAS,2.81
16,ILRSQLVLLLVRGVCYSESQSSAS,1.83
17,ILRSQLVGLLVRGVCYSESQSSAS,2.01
18,ILRSQLVELLVRGVCYSESQSSAS,3.03
19,ILRSQLVNLLVRGVCYSESQSSAS,2.15
20,ILRSQLVVLLVRGVCYSESQSSAS,2.62
21,ILRSQLVCLLVRGVCYSESQSSAS,3.51
22,ILRSQLVYLLVRGVCYSESQSSAS,2.21
23,ILRSQLVSLLVRGVCYSESQSSAS,2.29
24,ILRSQLVWLLVRGVCYSESQSSAS,2.28

row,Variant,protein stability index
1,ILRSQLVKLLVRGVCYSESQSSAS,2.88
2,ILRSQLVMLLVRGVCYSESQSSAS,2.8
3,ILRSQLVTLLVVGVCYSESQSSAS,3.56
4,ILRSQLVTLLVAGVCYSESQSSAS,2.38
5,ILRSQLVTLLVNGVCYSESQSSAS,1.67
6,ILRSQLVTLLVKGVCYSESQSSAS,3.37
7,ILRSQLVTLLVSGVCYSESQSSAS,3.78
8,ILRSQLVTLLVIGVCYSESQSSAS,2.68
9,ILRSQLVTLLVHGVCYSESQSSAS,4.29
10,ILRSQLVTLLVDGVCYSESQSSAS,2
11,ILRSQLVTLLVLGVCYSESQSSAS,3.03
12,ILRSQLVTLLVTGVCYSESQSSAS,2.56
13,ILRSQLVTLLVWGVCYSESQSSAS,2.29
14,ILRSQLVTLLVPGVCYSESQSSAS,2.67
15,ILRSQLWTLLVRGVCYSESQSSAS,1.96
16,ILRSQLTTLLVRGVCYSESQSSAS,2.46
17,ILRSQLNTLLVRGVCYSESQSSAS,1.99
18,ILRSQLQTLLVRGVCYSESQSSAS,2.43
19,ILRSQLMTLLVRGVCYSESQSSAS,2.25
20,ILRSQLETLLVRGVCYSESQSSAS,2.37
21,ILRSQLRTLLVRGVCYSESQSSAS,2.57
22,ILRSQLPTLLVRGVCYSESQSSAS,1.98
23,ILRSQLDTLLVRGVCYSESQSSAS,2.45
24,ILRSQLGTLLVRGVCYSESQSSAS,1.75

row,Variant,protein stability index
1,ILRSQLHTLLVRGVCYSESQSSAS,2.63
2,ILRSQLKTLLVRGVCYSESQSSAS,2.23
3,ILRSQLCTLLVRGVCYSESQSSAS,2.66
4,ILRSQLATLLVRGVCYSESQSSAS,2.81
5,ILRSQLITLLVRGVCYSESQSSAS,2.83
6,ILRSQLSTLLVRGVCYSESQSSAS,2.18
7,ILRSQLYTLLVRGVCYSESQSSAS,3.04
8,ILRSQLLTLLVRGVCYSESQSSAS,3.31
9,ILRSQLVTLLVRGVNYSESQSSAS,1.57
10,ILRSQLVTLLVRGVFYSESQSSAS,4.46
11,ILRSQLVTLLVRGVAYSESQSSAS,3.2
12,ILRSQLVTLLVRGVGYSESQSSAS,3.11
13,ILRSQLVTLLVRGVIYSESQSSAS,3.23
14,ILRSQLVTLLVRGVHYSESQSSAS,1.73
15,ILRSQLVTLLVRGVKYSESQSSAS,1.13
16,ILRSQLVTLLVRGVDYSESQSSAS,1.89
17,ILRSWLVTLLVRGVCYSESQSSAS,1.44
18,ILRSTLVTLLVRGVCYSESQSSAS,2.06
19,ILRSFLVTLLVRGVCYSESQSSAS,2.23
20,ILRSMLVTLLVRGVCYSESQSSAS,3.17
21,ILRSNLVTLLVRGVCYSESQSSAS,3.29
22,ILRSALVTLLVRGVCYSESQSSAS,1.97
23,ILRSKLVTLLVRGVCYSESQSSAS,2.79
24,ILRSELVTLLVRGVCYSESQSSAS,3.8

row,Variant,protein stability index
1,ILRSSLVTLLVRGVCYSESQSSAS,3.4
2,ILRSCLVTLLVRGVCYSESQSSAS,3.81
3,ILRSVLVTLLVRGVCYSESQSSAS,2.98
4,ILRSPLVTLLVRGVCYSESQSSAS,2.72
5,ILRSYLVTLLVRGVCYSESQSSAS,3.81
6,ILRSDLVTLLVRGVCYSESQSSAS,2.31
7,ILRSQLVTLLVRLVCYSESQSSAS,2.53
8,ILRSQLVTLLVRWVCYSESQSSAS,1.7
9,ILRSQLVTLLVREVCYSESQSSAS,1.72
10,ILRSQLVTLLVRDVCYSESQSSAS,3.12
11,ILRSQLVTLLVRSVCYSESQSSAS,2.89
12,ILRSQLVTLLVRQVCYSESQSSAS,3.06
13,ILRSQLVTLLVRIVCYSESQSSAS,2.7
14,ILRSQLVTLLVRPVCYSESQSSAS,2.69
15,ILRSQLVTLLVRVVCYSESQSSAS,3.06
16,ILRSQLVTLLVRHVCYSESQSSAS,3.18
17,ILRSQLVTLLVRRVCYSESQSSAS,3.25
18,ILRSQLVTLLVRFVCYSESQSSAS,4.5
19,ILRSQLVTLLVRNVCYSESQSSAS,3.53
20,ILRSQLVTLLYRGVCYSESQSSAS,2.19
21,ILRSQLVTLLPRGVCYSESQSSAS,2.1
22,ILRSQLVTLLKRGVCYSESQSSAS,2
